Laboratory results published in publication PMC5286520 (2017).
Bridge positions count the residues as written; N and C are the ends. Square brackets hold non-standard residues; d marks the D form. Ends that are not written are not given here.

Tests used:
V1bR = molecular target: T1, V1bR (Homo sapiens, UniProt P47901); assay: radioligand displacement
T1 chain: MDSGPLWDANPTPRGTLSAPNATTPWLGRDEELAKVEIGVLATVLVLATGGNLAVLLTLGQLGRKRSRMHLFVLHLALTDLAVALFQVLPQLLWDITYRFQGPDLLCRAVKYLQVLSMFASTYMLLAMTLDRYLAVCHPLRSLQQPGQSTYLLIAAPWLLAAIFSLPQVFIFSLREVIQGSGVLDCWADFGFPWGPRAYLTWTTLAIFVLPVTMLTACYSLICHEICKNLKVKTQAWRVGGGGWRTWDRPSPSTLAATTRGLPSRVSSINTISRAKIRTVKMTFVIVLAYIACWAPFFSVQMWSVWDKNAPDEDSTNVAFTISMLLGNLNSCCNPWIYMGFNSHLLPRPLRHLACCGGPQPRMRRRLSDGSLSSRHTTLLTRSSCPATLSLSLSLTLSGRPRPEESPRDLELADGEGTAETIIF

OTR = molecular target: T2, OTR (Homo sapiens, UniProt P30559); assay: radioligand displacement
T2 chain: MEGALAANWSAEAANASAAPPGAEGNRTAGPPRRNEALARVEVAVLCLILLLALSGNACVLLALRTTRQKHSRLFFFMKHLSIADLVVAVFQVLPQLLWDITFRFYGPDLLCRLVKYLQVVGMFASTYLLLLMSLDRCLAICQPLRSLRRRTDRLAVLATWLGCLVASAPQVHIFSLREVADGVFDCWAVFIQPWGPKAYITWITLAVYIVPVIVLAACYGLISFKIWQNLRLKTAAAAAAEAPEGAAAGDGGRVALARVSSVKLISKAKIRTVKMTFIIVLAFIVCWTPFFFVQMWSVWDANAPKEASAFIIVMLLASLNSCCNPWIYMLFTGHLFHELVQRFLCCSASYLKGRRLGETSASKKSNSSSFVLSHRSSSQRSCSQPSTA

V1aR [1] = molecular target: T3, V1aR (Homo sapiens, UniProt P37288); assay: radioligand displacement
V1aR [2] = molecular target: T3, V1aR; assay: Schild analysis (IP1 assay)

T3 sequence (P37288 whole entry): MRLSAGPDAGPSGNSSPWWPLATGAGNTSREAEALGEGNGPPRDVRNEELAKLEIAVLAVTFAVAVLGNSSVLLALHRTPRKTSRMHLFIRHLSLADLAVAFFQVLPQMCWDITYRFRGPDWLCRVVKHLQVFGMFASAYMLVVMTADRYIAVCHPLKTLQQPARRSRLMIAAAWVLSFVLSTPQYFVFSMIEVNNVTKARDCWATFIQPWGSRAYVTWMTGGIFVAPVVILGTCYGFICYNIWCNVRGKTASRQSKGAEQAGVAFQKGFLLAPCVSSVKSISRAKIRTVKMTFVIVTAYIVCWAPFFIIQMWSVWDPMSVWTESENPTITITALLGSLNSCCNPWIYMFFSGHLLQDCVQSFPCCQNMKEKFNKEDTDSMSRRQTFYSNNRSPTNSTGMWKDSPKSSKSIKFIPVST

B1: [D-Arg8]-inotocin (peptide)
chain: CLITNCP[dR]G-NH2
modifications: disulfide 1-6 (inferred)
For B1, the Ki (V1bR) was > 100 µM, the Ki (OTR) was > 4 µM and the Ki (V1aR [1]) was 1.3 nM. It also gave a Ki (V1aR [2]) of ~16 nM.
